Results published in patent US20260209384A1 (Stanford University, published 2026).

Molecular target: T1, recombinant human GPC2 (R&D Systems) (human, UniProt Q8N158 24-554, limits assumed, labelled with Dylight488 or Dylight650 in the flow cytometry assays; unlabelled in the ELISA)
T1 construct: extracellular domain; also called hGPC2; human Glypican-2
T1 sequence (looked up): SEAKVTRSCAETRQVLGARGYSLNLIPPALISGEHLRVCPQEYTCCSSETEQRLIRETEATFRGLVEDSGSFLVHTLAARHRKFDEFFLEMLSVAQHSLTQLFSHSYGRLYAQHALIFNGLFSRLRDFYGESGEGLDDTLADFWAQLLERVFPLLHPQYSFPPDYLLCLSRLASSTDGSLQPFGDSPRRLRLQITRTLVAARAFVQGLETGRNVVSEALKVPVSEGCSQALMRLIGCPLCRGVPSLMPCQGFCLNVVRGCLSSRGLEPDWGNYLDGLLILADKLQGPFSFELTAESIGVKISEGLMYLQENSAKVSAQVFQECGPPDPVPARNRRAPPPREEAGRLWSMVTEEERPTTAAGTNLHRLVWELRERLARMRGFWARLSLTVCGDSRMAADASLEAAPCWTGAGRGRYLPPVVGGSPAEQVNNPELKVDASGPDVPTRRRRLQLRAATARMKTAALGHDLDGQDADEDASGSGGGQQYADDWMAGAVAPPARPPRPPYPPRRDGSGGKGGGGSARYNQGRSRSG
Test: panning of a human naive Fab phage library against recombinant human GPC2
Excerpt: A naïve human Fab phage display library constructed from peripheral blood B cells of 50 healthy donors, was used for selection of Fabs against purified recombinant GPC2 ectodomain (R&D Systems) as previously described. The isolated Fabs were expressed, purified and tested for binding to the GPC2 ectodomain through ELISA.

B1: GPC2.27 (Fab from a human naive Fab phage library) (Fab, V domains shown)
VH: EVQLVESGPGLVKPSETLSLTCAVSGYSISSGYYWGWIRQPPGKGLEWIGSIYHSGSTYYNPSLKSRVTISVDTSKNQFSLKLSSVTAADTAVYYCASLPSRGGFDYWGQGTLVTVSS
VL: EIVMTQSPATLSASVGDRVTIACRASQTISRYLNWYQQKPGKAPKLLIYAASSLQSGVSSRFSGSGSGTEFTLTISSLQPEDFATYFCQQTYSPPITFGQGTRLEIKR
notes: Human Fab selected by phage display
Q: Does B1 bind?
A: binds
